Patent publication US10058586B2, “Use of human small leucine zipper protein in adipocyte differentiation procedure” (Korea University Research and Business Foundation, priority 2013, dated 2018)

Key:
PPARγ2 = biological target: T1, PPARγ2 (Homo sapiens, UniProt P37231); test: FABP4 promoter luciferase analysis in preadipocytes from epididymal adipose tissues of sLZIP TG mice; type: cell-based, mouse; design: expressed in transfected cells; host or cells: primary preadipocytes from epididymal adipose tissue of human-sLZIP transgenic mice; settings: adipocytes of sLZIP TG mice vs wild type mice, with or without 10 nM RZD
T1 sequence (P37231 1-505): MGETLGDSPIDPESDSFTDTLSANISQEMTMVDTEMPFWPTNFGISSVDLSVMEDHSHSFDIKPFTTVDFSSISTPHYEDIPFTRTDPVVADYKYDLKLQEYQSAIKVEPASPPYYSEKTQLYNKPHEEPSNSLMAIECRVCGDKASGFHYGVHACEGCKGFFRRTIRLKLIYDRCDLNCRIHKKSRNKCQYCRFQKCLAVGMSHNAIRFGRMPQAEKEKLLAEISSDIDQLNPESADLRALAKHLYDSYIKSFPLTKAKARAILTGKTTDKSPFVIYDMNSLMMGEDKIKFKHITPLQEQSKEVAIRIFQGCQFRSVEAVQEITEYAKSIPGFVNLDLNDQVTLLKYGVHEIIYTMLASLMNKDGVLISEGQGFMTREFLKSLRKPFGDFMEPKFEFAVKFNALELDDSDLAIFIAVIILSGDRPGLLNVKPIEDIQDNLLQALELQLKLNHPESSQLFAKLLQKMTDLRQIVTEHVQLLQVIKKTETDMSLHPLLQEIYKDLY
Source text: In order to generate human sLZIP transgenic (TG) mice, sLZIP genes were cloned into a pCMV-flag expression vector. The sLZIP TG mice were generated by Macrogen, Inc (Seoul, Korea). Transgenic founders were mated with wild type C57BL/6 mice to produce F1 heterozygotes. F1-F4 generations were genetically screened for transgenes at an age of 2 weeks old. The following two primers were used to amplify genomic DNA in order to identify wild type and TG mice: [NT] and 5'-[NT]3.' Adipocyte differentiation is a well-regulated procedure. PPARγ2 is a major regulator of adipogenesis, is highly expressed during adipocyte differentiation, and regulates expression of genes involved in adipogenesis. An effect of sLZIP on adipogenesis in vivo was examined. For this purpose, in order to produce human sLZIP transgenic mice, sLZIP genes were cloned in a pCMV-flag expression vector. The sLZIP TG mice were produced in Macrogen, Inc (Seoul, Korea) (FIG. 8A). Preadipocytes were isolated from epididymal adipose tissues of sLZIP TG mice. […] A promoter activity was measured according to luciferase analysis (FIG. 8B). […] Total RNA was extracted from the cells, and an mRNA expression level of mouse LZIPs was measured using RT-PCR analysis. […] Total RNA was isolated from the cells, and an mRNA expression level of mouse LZIPs was measured using RT-PCR (FIG. 9C) and real-time PCR (FIG. 9D).

[1] = test system: CREB element in the FABP4 enhancer; test: Chromatin immunoprecipitation (ChIP) with HA-sLZIP in C3H10T1/2 cells; type: cell-based; settings: RZD treated or not
Description: C3H10T1/2 cells grown in a 100-mm culture dish were infected with adenovirus HA-sLZIP. After the infection, the cells remained in a growth medium until the cells reaches 100% confluence, and the medium was exchanged with a differentiation medium. The cells were washed with 1×PBS, the medium was treated with 1% formaldehyde for 10 minutes at room temperature, and then glycine was added for 5 minutes at a final concentration of 0.125 M. The cells were strapped with PBS, and centrifuged at 1000×g for 5 minutes at 4° C. ChIP analysis was performed such that anti-HA antibodies and anti-rabbit IgG serving as an internal control group were used and precipitated together with a DNA-protein complex. An enhancer region of FABP4 including a functional CREs was amplified from the prepared DNA.
A DNA binding ability of sLZIP with various elements in the FABP4 enhancer region was examined. For this purpose, recombinant His-sLZIP fusion proteins (3 μg) were incubated with γ-^32P-labeled oligonucleotide probes containing expected CREB binding elements (FIG. 7B). The γ-^32P-labeled oligonucleotide probes were incubated while an amount of purified His-sLZIPs was increased. For competition analysis, unlabeled CREB oligonucleotide probes of 100-fold excess were used and His antibodies were added to a reaction mixture on ice for additional 40 minutes (FIG. 7C). […]

B1: sLZIP: human small leucine-zipper protein, isoform of LZIP, 354 amino acids, no transmembrane domain; GenBank FJ263669, SEQ ID NO: 1 (protein, listed as Homo sapiens)
chain: MELELDAGDQDLLAFLLEESGDLGTAPDEAVRAPLDWALPLSEVPSDWEVDDLLCSLLSPPASLNILSSSNPCLVHHDHTYSLPRETVSMDLESESCRKEGTQMTPQHMEELAEQEIARLVLTDEEKSLLEKEGLILPETLPLTKTEEQILKRVRRKIRNKRSAQESRRKKKVYVGGLESRVLKYTAQNMELQNKVQLLEEQNLSLLDQLRKLQAMVIEISNKTSSSSMYSSDTRGSLPAEHGVLSRQLRALPSEDPYQLELPALQSEVPKDSTHQWLDGSDCVLQAPGNTSCLLHYMPQAPSAEPPLEWPFPDLFSEPLCRGPILPLQANLTRKGGWLPTGSPSVILQDRYSG
transcriptional activity of PPARγ2 (luciferase) (PPARγ2): decreased in the adipocytes of the sLZIP TG mice more than in wild type mice | recruitment to CREB element in the FABP4 enhancer (ChIP) [1]: gathered in the CREB element in the FABP4 enhancer
